# According to paper PMC11369174 (Molecular Systems Biology, 2024):
# Where no end group is shown, it is not given here.
# T1: FITC-MYC (also: FITC label, position not given here)
# T1 chain: PAAKRVKLD
# T2: FITC-NCOR2 (also: FITC label, position not given here)
# T2 chain: PKRTYDMMEGRVGRAI
# T3: importin subunit α-3 (KPNA4) ARM domain (human)
# T3 chain: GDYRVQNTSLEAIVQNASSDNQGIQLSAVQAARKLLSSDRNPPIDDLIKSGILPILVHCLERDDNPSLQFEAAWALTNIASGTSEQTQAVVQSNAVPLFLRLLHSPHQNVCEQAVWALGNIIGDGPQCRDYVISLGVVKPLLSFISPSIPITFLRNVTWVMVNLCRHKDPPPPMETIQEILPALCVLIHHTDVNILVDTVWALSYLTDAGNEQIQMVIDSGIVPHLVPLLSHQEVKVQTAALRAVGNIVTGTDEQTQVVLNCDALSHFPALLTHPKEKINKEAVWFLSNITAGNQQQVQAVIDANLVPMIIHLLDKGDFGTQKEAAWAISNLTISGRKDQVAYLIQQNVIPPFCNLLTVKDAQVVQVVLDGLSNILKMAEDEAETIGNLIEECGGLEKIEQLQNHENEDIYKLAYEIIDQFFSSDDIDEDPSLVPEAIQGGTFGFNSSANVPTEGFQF
# T4: peripheral plasma membrane protein CASK (CASK) kinase domain (human, UniProt O14936 12-276)
# T4 construct: CASK, kinase domain; limits in Dataset EV2; source: E. coli Rosetta, purified
# T4 sequence (looked up): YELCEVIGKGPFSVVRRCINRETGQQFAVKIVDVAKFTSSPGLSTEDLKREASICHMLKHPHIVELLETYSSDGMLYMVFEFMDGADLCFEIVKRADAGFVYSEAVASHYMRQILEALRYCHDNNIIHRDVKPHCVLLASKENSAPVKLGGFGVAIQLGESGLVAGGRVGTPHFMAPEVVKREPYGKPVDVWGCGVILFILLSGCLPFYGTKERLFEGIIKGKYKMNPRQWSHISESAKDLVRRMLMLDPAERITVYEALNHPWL
# T5: clathrin N-terminal domain (CLTC NTD) (human)
# T5 chain: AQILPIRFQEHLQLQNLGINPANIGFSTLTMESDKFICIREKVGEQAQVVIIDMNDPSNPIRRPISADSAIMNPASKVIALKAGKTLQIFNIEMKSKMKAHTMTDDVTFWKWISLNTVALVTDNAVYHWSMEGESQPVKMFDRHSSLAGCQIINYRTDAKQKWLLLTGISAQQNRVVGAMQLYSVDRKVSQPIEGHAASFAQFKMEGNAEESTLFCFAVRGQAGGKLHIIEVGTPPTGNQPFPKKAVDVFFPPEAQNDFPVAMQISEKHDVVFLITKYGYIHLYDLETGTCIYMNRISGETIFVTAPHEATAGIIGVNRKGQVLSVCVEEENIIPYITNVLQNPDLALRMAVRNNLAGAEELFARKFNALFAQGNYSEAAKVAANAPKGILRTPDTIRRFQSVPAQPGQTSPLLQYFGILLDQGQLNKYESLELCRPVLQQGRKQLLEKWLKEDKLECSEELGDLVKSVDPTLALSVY
# T6: Ras-GTPase-activating protein-binding protein 2 (G3BP2) NTF2 domain (human, UniProt Q9UN86 11-133)
# T6 sequence (looked up): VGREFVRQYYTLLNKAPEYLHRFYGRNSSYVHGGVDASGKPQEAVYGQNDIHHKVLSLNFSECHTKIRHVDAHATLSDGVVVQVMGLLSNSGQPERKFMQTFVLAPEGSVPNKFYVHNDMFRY
# T7: Ras-GTPase-activating protein-binding protein 2 (G3BP2) NTF2 domain (human, UniProt Q9UN86 11-133)
# T7 construct: G3BP2, NTF2 domain; limits in Dataset EV2; source: E. coli BL21 DE (Gold), purified
# T7 sequence (looked up): T6 sequence (looked up)
# T8: ADP-ribosylation factor-binding protein GGA1 (GGA1) VHS domain (human, UniProt Q9UJY5 17-147)
# T8 construct: GGA1, VHS domain; limits in Dataset EV2; source: E. coli BL21 DE (Gold), purified
# T8 sequence (looked up): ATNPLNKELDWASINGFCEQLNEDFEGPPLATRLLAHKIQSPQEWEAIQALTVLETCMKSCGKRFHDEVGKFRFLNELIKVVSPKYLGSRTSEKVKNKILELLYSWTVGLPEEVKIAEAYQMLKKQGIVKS
# B1: Importin subunit alpha-8 (KPNA7) ARM domain (domain or fragment)
# chain: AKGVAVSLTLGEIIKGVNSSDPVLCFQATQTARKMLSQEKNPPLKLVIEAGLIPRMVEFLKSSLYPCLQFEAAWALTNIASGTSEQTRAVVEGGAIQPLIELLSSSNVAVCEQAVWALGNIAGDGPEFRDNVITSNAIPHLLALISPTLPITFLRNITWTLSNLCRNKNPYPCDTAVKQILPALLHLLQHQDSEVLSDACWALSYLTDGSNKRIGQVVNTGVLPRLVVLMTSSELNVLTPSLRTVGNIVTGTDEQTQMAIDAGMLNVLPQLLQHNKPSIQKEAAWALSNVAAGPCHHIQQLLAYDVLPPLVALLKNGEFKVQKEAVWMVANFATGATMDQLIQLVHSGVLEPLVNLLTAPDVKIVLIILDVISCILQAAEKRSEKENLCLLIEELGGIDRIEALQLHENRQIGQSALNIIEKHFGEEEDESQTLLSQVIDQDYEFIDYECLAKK
# B2: NSD1 1793-1808 L1797P peptide (peptide)
# peptide: EFPVPFFGSNDYLWTH
# notes: also called NSD1 L1797P mutant; source: synthetic peptide, bought: Genecust
# B3: ABRAXAS1_(349-364) R361Q peptide (peptide)
# peptide: LDLDDRWQFKRSQLLD
# notes: also called ABRAXAS1 R361Q mutant; source: synthetic peptide, bought: Genecust
# B4: FANCA 1-16 S4L peptide (peptide)
# peptide: MSDLWVPNSASGQDPG
# notes: FANCA residues 1-16; also called FANCA S4L mutant; source: synthetic peptide, bought: Genecust
# B5: CTNNB1_(27-42) S33F peptide (peptide)
# peptide: QQSYLDFGIHSGATTT
# notes: β-catenin residues 27-42; also called CTNNB1 S33F mutant; source: synthetic peptide, bought: Genecust
# B6: MITF 258-271 wild-type peptide (peptide)
# peptide: SGNLIDLYGNQGLPY
# notes: also called MITF Y265C wild-type; source: synthetic peptide, bought: Genecust
# B7: MAPT 717-731 R723W peptide (peptide)
# peptide: YSGDTSPWHLSNVSST
# notes: microtubule-associated protein tau residues 717-731; also called MAPT R723W mutant; source: synthetic peptide, bought: Genecust
# B8: BCL11A_(44-56) wild-type peptide (peptide)
# peptide: DLLTCGQAQMNFPY
# notes: BCL11A residues 44-56; source: synthetic peptide, bought: Genecust
# B9: BCL11A_(44-56) C48F peptide (peptide)
# peptide: DLLTFGQAQMNFPY
# notes: BCL11A residues 44-56; also called C47F BCL11A; source: synthetic peptide, bought: Genecust
# B10: MITF 258-271 Y265C peptide (peptide)
# peptide: SGNLIDLCGNQGLPY
# notes: also called MITF Y265C mutant; source: synthetic peptide, bought: Genecust
# B11: KMT2A 2847-2861 wild-type peptide (peptide)
# peptide: SDIMDFVLKNTPSMQY
# notes: also called KMT2A L2854Q wild-type; source: synthetic peptide, bought: Genecust
# B12: KMT2A 2847-2861 L2854Q peptide (peptide)
# peptide: SDIMDFVQKNTPSMQY
# notes: also called KMT2A L2854Q mutant; source: synthetic peptide, bought: Genecust
# B13: CDC45_(152-166) wild-type peptide (peptide)
# peptide: EPSEKRTRLEEEIVEY
# notes: also called CDC45 R157C wild-type; source: synthetic peptide, bought: Genecust
# B14: CDC45_(152-166) R157C peptide (peptide)
# peptide: EPSEKCTRLEEEIVEY
# notes: also called CDC45 R157C mutant; source: synthetic peptide, bought: Genecust
# B15: myosin-9 peptide (MYH9_(1419-1433)) wild-type (peptide)
# peptide: YQQELDDLLVDLDHQR
# notes: MYH9 residues 1419-1433; also called MYH9 D1424H wild-type; source: synthetic peptide, bought: Genecust
# B16: MYH9_(1419-1433) D1424H peptide (peptide)
# peptide: YQQELDHLLVDLDHQR
# notes: MYH9 residues 1419-1433; also called MYH9 D1424H mutant; source: synthetic peptide, bought: Genecust
# B17: Importin subunit alpha-3 (KPNA4) ARM domain (domain or fragment)
# chain: T3 chain
# Key:
# Conditions in all cases: both partners purified
# [1] = target: T9, E3 ubiquitin-protein ligase NEDD4 (NEDD4) WW2 domain, GST-tagged (human); test: fluorescence polarisation
# T9 construct: also called NEDD4 WW2-GST
# FITC-MYC = target: T1, FITC-MYC; test: fluorescence polarisation; saturation binding: dilution series of the protein domain added to 10 nM FITC-labelled peptide; 50 mM sodium phosphate pH 7.4, 0.05% Tween (protein dialysed in 50 mM sodium phosphate with 1 mM DTT; CASK kinase domain with 100 mM NaCl in addition); quadratic fit; technical triplets
# FITC-NCOR2 = target: T2, FITC-NCOR2; test: as above
# [2] = target: T10, Ras-GTPase-activating protein-binding protein 1 (G3BP1) NTF2 domain (human, UniProt Q13283 11-133); test: fluorescence polarisation; displacement: unlabelled peptide titrated onto a complex of FITC-labelled peptide (10 nM) and protein domain (1-2x KD); 50 mM sodium phosphate buffer pH 7.4 (CASK: plus 100 mM NaCl); KD calculated from IC50; technical triplets
# T10 construct: G3BP1, NTF2 domain; limits in Dataset EV2; source: E. coli BL21 DE (Gold), purified
# T10 sequence (Q13283 11-133): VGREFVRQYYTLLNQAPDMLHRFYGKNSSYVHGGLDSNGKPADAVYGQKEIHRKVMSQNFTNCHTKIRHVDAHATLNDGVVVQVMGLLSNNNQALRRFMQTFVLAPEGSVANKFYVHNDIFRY
# PPIA = target: T11, PPIA (human, UniProt P62937 1-165); test: fluorescence polarisation; saturation binding: dilution series of the protein domain added to 10 nM FITC-labelled peptide; 50 mM sodium phosphate pH 7.4, 0.05% Tween (protein dialysed in 50 mM sodium phosphate with 1 mM DTT; CASK kinase domain with 100 mM NaCl in addition); quadratic fit; technical triplets
# T11 construct: PPIA, human; source: E. coli BL21 (DE3) Gold, purified (glutathione or Ni2+ beads)
# [3] = target: T3, importin subunit α-3 (KPNA4) ARM domain; test: fluorescence polarisation; displacement as a1, with a FITC-labelled probe sampling the minor pocket of the KPNA4 ARM domain
# [4] = target: T3, importin subunit α-3 (KPNA4) ARM domain; test: fluorescence polarisation; displacement as a1, with a FITC-labelled probe sampling the major pocket of the ARM domain (KPNA4, KPNA7)
# [5] = target: T4, peripheral plasma membrane protein CASK …; test: fluorescence polarisation; displacement: unlabelled peptide titrated onto a complex of FITC-labelled peptide (10 nM) and protein domain (1-2x KD); 50 mM sodium phosphate buffer pH 7.4 (CASK: plus 100 mM NaCl); KD calculated from IC50; technical triplets
# [6] = target: T12, Clathrin N-terminal domain (CLTC NTD) (human); test: fluorescence polarisation
# T12 construct: also called Clathrin NTD
# [7] = target: T5, clathrin N-terminal domain (CLTC NTD); test: fluorescence polarisation; displacement: unlabelled peptide titrated onto a complex of FITC-labelled peptide (10 nM) and protein domain (1-2x KD); 50 mM sodium phosphate buffer pH 7.4 (CASK: plus 100 mM NaCl); KD calculated from IC50; technical triplets
# [8] = target: T13, Ras-GTPase-activating protein-binding protein 1 (G3BP1) NTF2 domain (human, UniProt Q13283 11-133); test: fluorescence polarisation
# T13 construct: also called G3BP1 NTF1
# T13 sequence (Q13283 11-133): as above
# [9] = target: T6, Ras-GTPase-activating protein-binding …; test: fluorescence polarisation
# [10] = target: T7, Ras-GTPase-activating protein-binding …; test: fluorescence polarisation; displacement: unlabelled peptide titrated onto a complex of FITC-labelled peptide (10 nM) and protein domain (1-2x KD); 50 mM sodium phosphate buffer pH 7.4 (CASK: plus 100 mM NaCl); KD calculated from IC50; technical triplets
# CREBBP KIX = target: T14, CREBBP KIX (human, UniProt Q92793 587-666); test: as above
# T14 construct: CREBBP, KIX domain; limits in Dataset EV2; source: E. coli BL21 DE (Gold), purified
# [11] = target: importin subunit α-8 (KPNA7) ARM domain; test: fluorescence polarisation; displacement as a1, with a FITC-labelled probe sampling the major pocket of the ARM domain (KPNA4, KPNA7)
# [12] = target: T8, ADP-ribosylation factor-binding protein …; test: fluorescence polarisation; displacement: unlabelled peptide titrated onto a complex of FITC-labelled peptide (10 nM) and protein domain (1-2x KD); 50 mM sodium phosphate buffer pH 7.4 (CASK: plus 100 mM NaCl); KD calculated from IC50; technical triplets
# T14 sequence (Q92793 587-666): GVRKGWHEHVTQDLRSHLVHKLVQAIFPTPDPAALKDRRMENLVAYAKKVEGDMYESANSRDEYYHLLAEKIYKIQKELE
# importin subunit α-8 (KPNA7) ARM domain, sequence (chain, as listed by the source): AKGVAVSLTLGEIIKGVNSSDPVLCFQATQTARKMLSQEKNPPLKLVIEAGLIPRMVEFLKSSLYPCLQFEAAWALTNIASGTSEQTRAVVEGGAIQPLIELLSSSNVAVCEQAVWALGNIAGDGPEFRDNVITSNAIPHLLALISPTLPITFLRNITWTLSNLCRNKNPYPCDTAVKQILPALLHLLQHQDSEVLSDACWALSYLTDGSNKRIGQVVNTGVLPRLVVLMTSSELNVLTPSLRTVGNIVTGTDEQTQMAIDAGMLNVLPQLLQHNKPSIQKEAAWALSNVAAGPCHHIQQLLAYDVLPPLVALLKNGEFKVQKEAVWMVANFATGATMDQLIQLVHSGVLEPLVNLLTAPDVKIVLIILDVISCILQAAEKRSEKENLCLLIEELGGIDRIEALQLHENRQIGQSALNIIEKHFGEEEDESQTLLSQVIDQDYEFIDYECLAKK
# T9 sequence (P46934 whole entry, the tested form may be a part): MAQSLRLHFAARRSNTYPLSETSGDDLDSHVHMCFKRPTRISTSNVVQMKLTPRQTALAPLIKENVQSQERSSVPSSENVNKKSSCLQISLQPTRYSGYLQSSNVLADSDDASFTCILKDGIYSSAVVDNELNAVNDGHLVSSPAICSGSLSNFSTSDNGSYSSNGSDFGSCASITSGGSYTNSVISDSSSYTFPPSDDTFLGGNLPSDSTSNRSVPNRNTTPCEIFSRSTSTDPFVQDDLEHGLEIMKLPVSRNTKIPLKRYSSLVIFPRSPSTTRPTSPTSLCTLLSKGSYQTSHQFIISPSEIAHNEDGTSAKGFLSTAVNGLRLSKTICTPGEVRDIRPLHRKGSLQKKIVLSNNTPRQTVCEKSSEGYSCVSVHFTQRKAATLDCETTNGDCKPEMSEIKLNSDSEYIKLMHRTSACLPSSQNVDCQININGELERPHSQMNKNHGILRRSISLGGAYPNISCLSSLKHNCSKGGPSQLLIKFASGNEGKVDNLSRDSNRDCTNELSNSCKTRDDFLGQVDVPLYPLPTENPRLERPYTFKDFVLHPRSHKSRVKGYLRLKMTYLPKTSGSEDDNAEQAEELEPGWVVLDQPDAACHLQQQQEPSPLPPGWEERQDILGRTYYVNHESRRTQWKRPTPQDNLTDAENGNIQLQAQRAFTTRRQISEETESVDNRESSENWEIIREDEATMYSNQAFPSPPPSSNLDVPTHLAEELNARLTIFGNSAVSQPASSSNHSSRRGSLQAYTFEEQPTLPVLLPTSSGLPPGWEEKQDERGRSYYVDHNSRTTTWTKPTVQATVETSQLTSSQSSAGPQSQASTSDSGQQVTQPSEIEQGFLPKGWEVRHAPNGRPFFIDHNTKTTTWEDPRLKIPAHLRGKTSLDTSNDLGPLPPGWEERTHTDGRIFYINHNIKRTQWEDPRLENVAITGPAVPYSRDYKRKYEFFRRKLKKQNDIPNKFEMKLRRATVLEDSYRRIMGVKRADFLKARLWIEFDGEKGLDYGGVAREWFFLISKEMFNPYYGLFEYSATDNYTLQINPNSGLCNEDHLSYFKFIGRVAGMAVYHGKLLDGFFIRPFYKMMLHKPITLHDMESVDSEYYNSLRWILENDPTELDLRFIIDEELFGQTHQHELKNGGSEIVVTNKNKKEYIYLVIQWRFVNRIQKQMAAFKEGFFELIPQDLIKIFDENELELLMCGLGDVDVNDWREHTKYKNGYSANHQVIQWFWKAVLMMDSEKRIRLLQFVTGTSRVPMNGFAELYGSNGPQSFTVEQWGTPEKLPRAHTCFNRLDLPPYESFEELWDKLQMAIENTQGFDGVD
# T11 sequence (P62937 whole entry, the tested form may be a part): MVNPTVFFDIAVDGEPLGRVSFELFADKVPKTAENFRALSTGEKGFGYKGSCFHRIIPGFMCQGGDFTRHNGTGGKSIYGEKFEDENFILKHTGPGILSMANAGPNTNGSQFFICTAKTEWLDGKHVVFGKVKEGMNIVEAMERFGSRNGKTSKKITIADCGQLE
binder,measurement,setting,value
"TDSPPPYSAG (also: FITC label, position not given here) [FITC-UL56(HHV-2)]",Kd,[1],4.1 µM
B1,Kd,FITC-MYC,7.5 µM
same,Kd,FITC-NCOR2,57 µM
B2,Kd,[2],49 µM
"EQVEYGPLQAQM (also: FITC label, position not given here) [FITC-SPHK2]",Kd,PPIA,42 µM
B3,"KD, minor pocket",[3],297 µM
same,"KD, major pocket",[4],75 µM
B4,Kd,[5],15 µM
B5,Kd,[2],57 µM
"SVDLITFDSV (also: FITC label, position not given here) [FITC-NSP3]",Kd,[6],21 µM
B6,Kd,[7],191 µM
"APRITFGGPSDS (also: FITC label, position not given here) [FITC-N_SARS-CoV-2]",Kd,[8],2510 nM
same,Kd,[9],5.4 µM
B7,Kd,[5],39 µM
B8,Kd,[7],1100 µM
B9,Kd,[10],215 µM
same,Kd,[7],361 µM
B10,Kd,[7],206 µM
B11,Kd,CREBBP KIX,380 µM
B12,Kd,CREBBP KIX,340 µM
B13,"KD, major pocket",[11],6.6 µM
B14,"KD, major pocket",[11],380 µM
B15,Kd,[12],101 µM
B16,Kd,[12],306 µM
B17,Kd,FITC-MYC,0.008 µM
same,Kd,FITC-NCOR2,0.03 µM
